Measurements as given in PMC6173309.

Target: SOX11 (UniProt P35716 34-132)
Test: EMSA

Sequence of SOX11 (P35716 34-132): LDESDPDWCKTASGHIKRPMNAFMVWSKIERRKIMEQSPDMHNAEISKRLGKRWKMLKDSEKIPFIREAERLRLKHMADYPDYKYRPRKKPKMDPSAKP

B1: modified Widom 601 with SOX11 site, free DNA (dsDNA)
DNA 1: CTGGAGAATCCCGGTCTGCAGGCCGCTCAATTGGTCGTAGACAGCTCTAGCACCGCTTAAACGCACGTACGGTATTGTTTATTTTGTTCCTCCGCCAAGGGGATTACTCCCTAGTCTCCAGGCACGTGTCAGATATATACATCCTGT
DNA 2: ACAGGATGTATATATCTGACACGTGCCTGGAGACTAGGGAGTAATCCCCTTGGCGGAGGAACAAAATAAACAATACCGTACGTGCGTTTAAGCGGTGCTAGAGCTGTCTACGACCAATTGAGCGGCCTGCAGACCGGGATTCTCCAG
  binding result: binds
